Measured values from patent US20230375531A1 (MIT, published 2023).

Columns and labels:
[1] = target: SARS-CoV-2 nucleocapsid (N) protein, recombinant, residues 1-419 (SARS-CoV-2, UniProt P0DTC9 1-419)
[2] = target: T1, truncated N-terminal domain (NTD) of SARS-CoV-2 N protein (SARS-CoV-2, UniProt P0DTC9 44-180); assay: BLI, BA-MBP-Sso.E1 on streptavidin probes
T1 construct: domain: N-terminal domain (NTD)

[3] = target: T2, truncated C-terminal domain (CTD) of SARS-CoV-2 N protein (SARS-CoV-2, UniProt P0DTC9 247-364); assay: BLI, BA-MBP-Sso.E2 on streptavidin probes
T2 construct: domain: C-terminal domain (CTD)

B1: Sso.E1 (rcSso7d binder against SARS-CoV-2 N protein) (designed binder)
chain: MATVKFTYQGEEKQVDISKIKIVRRGGQWISFWYDEGGGAYGAGYVSEKDAPKELLQMLEKQ
- Kd [1]: 3.2 nM

B2: BA-MBP-Sso.E1 (Sso.E1 fused to biotin and maltose binding protein) (designed binder, not shown: small tags and cut ends; large carriers)
chain: B1 chain
notes: also called reporter reagent
- binding result [2]: no binding

B3: Sso.E2 (rcSso7d binder against SARS-CoV-2 N protein) (designed binder)
chain: MATVKFTYQGEEKQVDISKIKNVGRWGQIIDFDYDEGGGAIGIGAVSEKDAPKELLQMLEKQ
- Kd [1]: 4.2 nM

B4: BA-MBP-Sso.E2 (Sso.E2 fused to biotin and maltose binding protein) (designed binder)
chain: B3 chain
- binding result [3]: no binding
